Data on 1 molecule can be found in US20260055211A1 (GLYCOERA, published 2026).

In general, kon refers to the second-order rate constant of association. What is called koff is the rate constant with which the complex falls apart. For orientation: Kd means the concentration at which binding is half-saturated.

In experiment [1] the target is T1, biotinylated recombinant human ASGPR1 (Acro Biosystems) (human, UniProt P07306 62-291, biotinylated).
T1 construct: Bought reagent
T1 sequence (looked up): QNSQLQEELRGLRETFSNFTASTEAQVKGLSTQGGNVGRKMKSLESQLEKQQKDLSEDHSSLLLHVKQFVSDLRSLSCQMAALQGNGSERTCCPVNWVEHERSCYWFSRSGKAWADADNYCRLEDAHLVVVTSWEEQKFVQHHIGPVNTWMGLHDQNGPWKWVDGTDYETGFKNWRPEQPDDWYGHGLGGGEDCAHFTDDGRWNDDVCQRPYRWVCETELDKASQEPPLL
Briefly: SPR (Biacore 8K), single cycle kinetics, ASGPR1 immobilized, 2 mM CaCl2, heterogeneous binding model; column ka2 (second component). The source says: (§1) Methods: Surface plasmon resonance (SPR) was used to measure binding kinetics (i.e., ka, kd, KD, equilibrium) of the PR3 glycoengineered polypeptide analyte to a recombinant CLB12.8 ligand (anti-PR3 antibody) or a biotinylated recombinant human ASGPR1 ligand (Acro Biosystems). Data was collected with a Biocore 8K. Either recombinant CLB12.8 or ASGPR1 was immobilized to the surface of a sensor chip and sequential injections of increasing concentrations of the PR3 glycoengineered polypeptide were performed in a single cycle kinetics experiment. ASGPR1 assays included 2 mM CaCl2 in the running buffer. Data were fit with a 1:1 binding model for CLB12.8 and with a heterogenous binding model for ASGPR1 using the fitting software provided by Cytiva.

Experiment [2] has as its target T1, biotinylated recombinant human ASGPR1 …. Briefly: SPR (Biacore 8K), single cycle kinetics, biotinylated ASGPR1 immobilized, m1 as analyte, 2 mM CaCl2, heterogenous binding model; kd1, first component of the heterogenous binding model.
Excerpt: as §1
Background: SPR reads the build-up and loss of mass on a sensor chip optically.

Experiment [3] shares this target. In words: SPR (Biacore 8K), single cycle kinetics, ASGPR1 immobilized, 2 mM CaCl2, heterogeneous binding model; column kd2 (second component).
Excerpt: as §1

Experiment [4] has the same target. Briefly: SPR (Biacore 8K), single cycle kinetics, biotinylated ASGPR1 immobilized, 2 mM CaCl2, heterogenous binding model, KD1; pre-steady state KD1 (kinetic fit, first site).
Excerpt: as §1

Experiment [5] deals with T2, recombinant anti-PR3 antibody CLB12.8.
T2 construct: Mouse monoclonal anti-PR3 antibody (detected with anti-mouse IgG); recombinant form used in SPR; also called anti-PR3 antibody clone CLB12.8; anti-PR3 mouse antibody
Briefly: SPR (Biacore 8K), single cycle kinetics, CLB12.8 immobilized, steady state fit.
Excerpt: as §1

The target of experiment [6] is T1, biotinylated recombinant human ASGPR1 …. Briefly: SPR (Biacore 8K), single cycle kinetics, biotinylated ASGPR1 immobilized, 2 mM CaCl2, steady state fit; steady state KD (equilibrium fit).
Excerpt: as §1

Experiment [7] has the same target. In words: SPR (Biacore 8K), single cycle kinetics, biotinylated ASGPR1 immobilized, 2 mM CaCl2, heterogenous binding model, KD2; pre-steady state KD2 (kinetic fit, second site).
Excerpt: as §1

Experiment [8] addresses T2, recombinant anti-PR3 antibody CLB12.8. Briefly: SPR (Biacore 8K), single cycle kinetics, CLB12.8 immobilized, kinetic (pre-steady state) fit, 1:1 binding model.
Excerpt: as §1

Experiment [9] shares this target. In words: SPR (Biacore 8K), single cycle kinetics, CLB12.8 immobilized, m1 as analyte, 1:1 binding model.
Excerpt: as §1

Experiment [10] concerns the target T1, biotinylated recombinant human ASGPR1 …. In words: SPR (Biacore 8K), single cycle kinetics, biotinylated ASGPR1 immobilized, m1 as analyte, 2 mM CaCl2, heterogenous binding model; ka1, first component of the heterogenous binding model.
Excerpt: as §1

B1: PR3 glycoengineered polypeptide (other)
chain: IVGGHEAQPHSRPYMASLQMRGNPGSHFCGGTLIHPSFVLTAAHCLRDIPQRLVNVVLGAHNVRTQEPTQQHFSVAQVFLNNYDAENKLNDVLLIQLSSPANLSASVATVQLPQQDQPVPHGTQCLAMGWGRVGAHDPPAQVLQELNVTVVTAACRPHNICTFVPRRKAGICFGDAGGPLICDGIIQGIDSFVIWGCATRAAPDFFTRVALYVDWIRSTLRRVEAKGRPGGGGANSTAPAPAPAHHHHHHHHHH
modifications: N-glycans (81.5% A2GalNAc2, biantennary GalNAc-terminated) at the native sites N129 and N174 (numbering of UniProt P24158) and at the Asn of the C-terminal glycotag; 80-90% of molecules fully …
notes: Secreted from glycoengineered Leishmania tarentolae (cell line stCGP05880) and purified by IMAC; also called exemplary PR3 glycoengineered polypeptide; glycoengineered polypeptide of PR3
In the case of B1, the kon in [1] came to 873 M⁻¹ s⁻¹; in [9] it was 305000 M⁻¹ s⁻¹; in experiment [10], 1.61e+08 M⁻¹ s⁻¹. In addition, the figures for the off-rate constant (koff) in [2], in experiment [3] and in experiment [9] were 7.54 s⁻¹, 6.16e-05 s⁻¹ and 0.0754 s⁻¹, respectively. The Kd in experiment [4] was 46.9 nM; in experiment [5], 32.4 nM; in experiment [6], 364 nM; in experiment [7], 70.6 nM; in experiment [8], 24.7 nM.
